# Laboratory results taken from article PMC10936676, “ATG9B is a tissue-specific homotrimeric lipid scramblase that can compensate for ATG9A” (Autophagy, 2023).
# Target: the molecule itself
# Experiment: cryo-EM structure; single-particle cryo-EM of purified ATG9B in LMNG-CHS micelles; 20 mM Tris-HCl, 200 mM NaCl, pH 8.5; reconstructions with C3 and without symmetry
protein,measurement,value
"3×FLAG-6×His-TEV-ATG9B (full-length human ATG9B), purified from Expi293 cells (natural protein, UniProt Q674R7-1 1-924, looked up, ATG9B, human, canonical isoform 1 (Q674R7-1), full length; residues 191-674 visible in the cryo-EM map; A TEV site lies between the 6×His tag and ATG9B; no cleavage is described; Eluted from the anti-FLAG resin with 3×FLAG peptide; In LMNG-CHS micelles; also called ATG9B homotrimer; pcDNA3.1-3×FLAG-6×His-TEV-ATG9B; source: Expi293, transiently transfected, extracted into detergent micelles, …) MVSRMGWGGRRRRLGRWGDLGPGSVPLLPMPLPPPPPPSCRGPGGGRISIFSLSPAPHTRSSPSSFSPPTAGPPCSVLQGTGASQSCHSALPIPATPPTQAQPAMTPASASPSWGSHSTPPLAPATPTPSQQCPQDSPGLRVGPLIPEQDYERLEDCDPEGSQDSPIHGEEQQPLLHVPEGLRGSWHHIQNLDSFFTKIYSYHQRNGFACILLEDVFQLGQFIFIVTFTTFLLRCVDYNVLFANQPSNHTRPGPFHSKVTLSDAILPSAQCAERIRSSPLLVLLLVLAAGFWLVQLLRSVCNLFSYWDIQVFYREALHIPPEELSSVPWAEVQSRLLALQRSGGLCVQPRPLTELDIHHRILRYTNYQVALANKGLLPARCPLPWGGSAAFLSRGLALNVDLLLFRGPFSLFRGGWELPHAYKRSDQRGALAARWGRTVLLLAALNLALSPLVLAWQVLHVFYSHVELLRREPGALGARGWSRLARLQLRHFNELPHELRARLARAYRPAAAFLRTAAPPAPLRTLLARQLVFFAGALFAALLVLTVYDEDVLAVEHVLTAMTALGVTATVARSFIPEEQCQGRAPQLLLQTALAHMHYLPEEPGPGGRDRAYRQMAQLLQYRAVSLLEELLSPLLTPLFLLFWFRPRALEIIDFFHHFTVDVAGVGDICSFALMDVKRHGHPQWLSAGQTEASLSQRAEDGKTELSLMRFSLAHPLWRPPGHSSKFLGHLWGRVQQDAAAWGATSARGPSTPGVLSNCTSPLPEAFLANLFVHPLLPPRDLSPTAPCPAAATASLLASISRIAQDPSSVSPGGTGGQKLAQLPELASAEMSLHVIYLHQLHQQQQQQEPWGEAAASILSRPCSSPSQPPSPDEEKPSWSSDGSSPASSPRQQWGTQKARNLFPGGFQVTTDTQKEPDRASCTD",stoichiometry N,3
